Assay: yeast display, Sf9 membrane polyspecificity reagent, FACS + sequencing; frameworks hold sequencing errors
Outline: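 Nanobodies came from a synthetic yeast display library in Saccharomyces cerevisiae BJ5465, induced with galactose for 36–48 hours and stained for 1 hour at 4 °C with 10% biotinylated, detergent-solubilized Sf9 membrane reagent. Cells were enriched on streptavidin microbeads and then FACS-sorted, with low and high (top ~1%) gates set on anti-HA fluorescence for expression and streptavidin fluorescence for reagent binding. Each polyreactivity label reflects the gate a clone came from. Genes were amplified by colony PCR, sequenced by MiSeq 2 × 250 and filtered by CDR length.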

Row | Sequence | polyreactivity (PSR sort gate)
1 | QVQLVESGGGLVQAGGSLRLSCAASGSIFSPYAMGWYRQAPGKERELVDAISFRASTTYYADSVKGRFTISRDNAKNTVYLQMNSLKPEDTAVYYCAASPLYSWFWGLYDYWGQGTQVTVSS | low polyreactivity
2 | QVQLVESGGGLVQAGGSLRLSCAASGSIFSQNAMGWYRQAPGKERELVASITYSGGSTYYADSVKGRFTISRDNAKNTVYFQMNSLKPEDTEVYYCAADVRYSSRFYYWGQGTQVTVSS | high polyreactivity
3 | QVQLVESGGGLVQAGGSLRLSCAASGSIFSQYAMGCYREAPGKERELVAAISSSGDSTNYADSVKGRFTISRDNAKNTVYLQMNSLKPEDTGVYDCAADPYYFYIWYWWPSFDYWGQGTQVTVSS | low polyreactivity
4 | QVQLVESGGGLVQAGGSLRLSCAASGSIFSQYAMGSYRQAPGKERELVAAITSGGRTYYADSVKGRFTISRDNAKNTVYLQMNSLKPEDTAVYYCAASRRGGGLDYWGQGTKVTVSS | high polyreactivity
5 | QVQLVESGGGLVQAGGSLRLSCAASGSIFSQYAMGWYRQAPGKERELVAAISASGGRTYYADSVKGRFTISRDNAKNTVYLQMNSLKPEDTAVYYCNAAHGSNRYSFVNPFYYWGQGTQVTVSS | high polyreactivity
6 | QVQLVESGGGLVQAGGSLRLSCAASGSIFSQYAMGWYRQAPGKERELVAAITYGGGSTYYADSVKGRFTISRDNAKNTVYLQMNSLKPEDTAVYYCAKEFKYWGYPYDYWGQGTQVTVSS | low polyreactivity
7 | QVQLVESGGGLVQAGGSLRLSCAASGSIFSRNAMGWYRQAPGTERELVAAITDSTGTTYYADSVKGRFTISRDNAKNTVYLQMNSLKPEDTAVYYCNAVGVPQGNFYVRGDDYWGQGTQVTVSS | low polyreactivity
8 | QVQLVESGGGLVQAGGSLRLSCAASGSIFSRNTLGWYRQAPGKERELVAAITRGGSTDYADSVKGRFTISRDNAKNTVYLQMNSLKPEDTAVYYCAKKTPGWGKFDYWGQGTQVTVSS | low polyreactivity
9 | QVQLVESGGGLVQAGGSLRLSCAASGSIFSRNVMGWSRQAPGKERELVAGISWRGGRTYYADSVKGRFTISRDNAMITVYLQMTSLKPEDTAVYYCAKGGVSYGEGDYWGQGTQVTVSS | high polyreactivity
10 | QVQLVESGGGLVQAGGSLRLSCAASGSIFSRYAMGWYRQAPGKERELVAAISSSGSSTYYADSVKGRFTISRDNAKNTVYLQMNSLKPEDTAVYYCAATGYPRFGYWGQGTQVTVSS | high polyreactivity
11 | QVQLVESGGGLVQAGGSLRLSCAASGSIFSRYAMGWYRQAPGKERELVAAITSSGTSTYYADSVKGRFTISRDNAKNTVYLQMNSLKPEDTAVYYCAAAFRQRTSRFDYWGQGSQVTVSS | high polyreactivity
12 | QVQLVESGGGLVQAGGSLRLSCAASGSIFSRYAMGWYRQAPGKERELVADITTRGGRTYYADSVKGRFTISRDNAKNTVYLQMNSLKPEDTAVYYCATLHSYRYRGGGDYWGQGTQVTVSS | high polyreactivity
13 | QVQLVESGGGLVQAGGSLRLSCAASGSIFSRYAMVWYRQAPGKERELVAAISWSGGRTYYADSVKGRFTISRDNAKNTVYLQMNSLKPEDTAVYYCAAPSYTTSWRYDYWGQGTQVTVSS | high polyreactivity
14 | QVQLVESGGGLVQAGGSLRLSCAASGSIFSRYTMGWYRQAPGKERELVAAISSGGSTNYADSVKGRFTISRDNAKNTVYLQMNRLKPEDTAVYYCAARSYRYYYGFDYWGQGTQVTVSS | low polyreactivity
15 | QVQLVESGGGLVQAGGSLRLSCAASGSIFSRYTMGWYRQAPGKERELVAAISYSGTRTYYADSVKGRFTISRDNAKNTVYLQMNSLKPEDTAVYYCAAIASPAGSNYWGQGTQVTVSS | high polyreactivity
16 | QVQLVESGGGLVQAGGSLRLSCAASGSIFSRYTMGWYRQAPGKERELVAAITSSGVSTYYADSVKGRFTISRDNAKNTVYLQMNSLKPEDTAVYYCAAYSVFRSYDYWGQGTQVTVSS | high polyreactivity
17 | QVQLVESGGGLVQAGGSLRLSCAASGSIFSRYTMGWYRQAPGKERELVAVISTSGGSTYYADSVKGRFTISRDNAKNTVYLQMNSLKPEDTAVYYCNARPKRGSLGGPGYGYWGQGTQVTVSS | high polyreactivity
18 | QVQLVESGGGLVQAGGSLRLSCAASGSIFSSNAMGWYRPAPGKERELVAAITSGGSTTYADSVKGRFTISRDNAKNTVYLQMNSLKPEDTAVYYCNARNYYYPSDRDYWGQGTQVTVSS | low polyreactivity
19 | QVQLVESGGGLVQAGGSLRLSCAASGSIFSSNAMGWYRQAPGKERELVAAITSGGSTTYADSVKGRFTISRDNAKNTVYLQMNSLKPEDTAVYYCAADPVYRYYHGWTYLDYDYWGQGTQVTVSS | low polyreactivity
20 | QVQLVESGGGLVQAGGSLRLSCAASGSIFSSNAMGWYRQAPGKERELVAAITVSGGSTYYADSVKGRFTISRDNAKNTVYLQMNSLKPEDTAVYDCAVPVTYYFDGSWWRYDYWGQGTQVTVSS | high polyreactivity
21 | QVQLVESGGGLVQAGGSLRLSCAASGSIFSSNAMGWYRQAPGTTNYADSVKGRFTISRDNAKNTVYLQMNSLKPEDTAVYYCAKDYVLFQYVDFQDDDYWGQGTQVTVSS | low polyreactivity
22 | QVQLVESGGGLVQAGGSLRLSCAASGSIFSSNTMGWYRQAHGKERELVAAITVSGGRTYYADSVKGRFTISRDNAKNTVYLQMNSLKPEDTAVYYCATRWFGNSYSYRAYDYWGQGTQVTVSS | high polyreactivity

Row | Sequence | polyreactivity (PSR sort gate)
23 | QVQLVESGGGLVQAGGSLRLSCAASGSIFSSNTMGWYRQAPGKERELVAAITVSGGRTYYADSVKGRFTISRDNAKNTVYLQMNSLKPEDTAVYYCATRWFGNSYSYRAYDYWGQGTQVTVSS | high polyreactivity
24 | QVQLVESGGGLVQAGGSLRLSCAASGSIFSSYAMGWYRQAPGKEREFVAAINNNDGGTDYADSVKGRFTISRDNAKNTVYLQMNSLKPEDTAVYYCAADYTRYVQTTYDYWGQGTQVTVSS | low polyreactivity
25 | QVQLVESGGGLVQAGGSLRLSCAASGSIFSSYAMGWYRQAPGKERELVAAISTAGSTNYADSVKGRFTISRDNAKNTVYLQMNSLKPEDTAVYYCAADSGDQQSYGLDLNHDFDYWGQGTQVTVSS | low polyreactivity
26 | QVQLVESGGGLVQAGGSLRLSCAASGSIFSSYAMGWYRQAPGKERELVAGISKSGGSTYYADSVKGRFTISRDNAKNTVYLQMNSQKPEDTAVYYCAGPSYWGGGRYRYGYWGQGTQVTVSS | high polyreactivity
27 | QVQLVESGGGLVQAGGSLRLSCAASGSIFSSYTMGWYRQAPGKERELVAAISSTGSTYYADSVKGRFTISRDNAKNTVYLQMNSLKPEDTAVYYCAARGWYWQQYKGHTRYDYWGQGTQVTVSS | high polyreactivity
28 | QVQLVESGGGLVQAGGSLRLSCAASGSIFSTYAMGWYRQAPGKERELVAAINSGDSTSYADSVKGRFTISRDNAKNTVYLQMNSLKPEDTAVYYCAAKTGGYWYLRRTGRYESWGQGTQVTVSS | low polyreactivity
29 | QVQLVESGGGLVQAGGSLRLSCAASGSIFSTYAMGWYRQAPGKERELVAAITRRGGSTYYADSVKGRFTISRDNAKNTVYLQMNSLKPEDTAVYYCNAAAKSRMDYWGQATQVTVSS | high polyreactivity
30 | QVQLVESGGGLVQAGGSLRLSCAASGSIFSTYGMGWYRQAPGKERELVAAITTSGGRTYYADSVKGRFTISRDNAKNTVYLQMKSLKPEVTAVYYCKAVRGGRYGLDYWGQGTQVNVSS | high polyreactivity
31 | QVQLVESGGGLVQAGGSLRLSCAASGSIFSVNTMGWYRQAPGKERELVAAISESGDGTYYADSVKGRFTISRDNAKNTVYLQMNSLKPEDTAVYYCNADRQKGGGYYPHEFDYWGQGTQVTVSS | low polyreactivity
32 | QVQLVESGGGLVQAGGSLRLSCAASGSIFSVYAMGWYIQAPGKEREFVASISGGSGRTYYADSVKGRFTISRDNAKNTVYLQMNSLKPEDTAVYYCAAAYWAYDTGKMGYWGQGTQVTVSS | low polyreactivity
33 | QVQLVESGGGLVQAGGSLRLSCAASGSIFSWNAMGWYRQAPGKERELVAGITWSGGGTSYADSVKGRFTISRDNAKNTVYLQMNSLKPEDTAVYYCAKEWIFDFNYWGQGTQVTVSS | low polyreactivity
34 | QVQLVESGGGLVQAGGSLRLSCAASGSIFSWYAMGWYRQAPGKERELVAAISSRGGSTYYADSVKGRFTISRDTAKNTVYLQMYSLKPEDTAVYYCNTTYGYSTYWASGKYDYWGQGTQVTVSS | low polyreactivity
35 | QVQLVESGGGLVQAGGSLRLSCAASGSIFSYNAMGWDRQAPGKESELVAAITSGGGTNYADSVKGRFTISRDNAKNTVYLQINSLKPEDTAVYYCNAVPNYYDYDSWGQGTQVTVSS | high polyreactivity
36 | QVQLVESGGGLVQAGGSLRLSCAASGSIFSYNAMGWYRQAPGKERELVADITGSGGSTYYADSVKGRFTISRDNAKNTVYLQMNSLKPEDTAVYYCNAVGQYYYLGYDYWGQGTQVTVSS | low polyreactivity
37 | QVQLVESGGGLVQAGGSLRLSCAASGSIFSYNVIGWYRQAPGKEREMVATITVDGTSTYYADSVKGRFTISRDNAKNTVYLQMNSLKPEDTAVYDCAADETASFTQEYEEMEYWGQGTQVTVSS | low polyreactivity
38 | QVQLVESGGGLVQAGGSLRLSCAASGSIFSYYAMGRYRQAPGKEREIVAAISWSGGSTYYADSVKGRFTISRDNAKNTVYLQMNSLKPEDTAVYYCAAELSLSWLVPDVPYYYWGQGTQVTVSS | low polyreactivity
39 | QVQLVESGGGLVQAGGSLRLSCAASGSIFSYYAMGWSRQAPGKERELVATISWSGGSTYYADSVKGRFTISRDNAKNTVYLQMNSLKPEDTAVYYCAARIWTGRGRKLGYGYDYWGQGTQVTVSS | low polyreactivity
40 | QVQLVESGGGLVQAGGSLRLSCAASGSIFSYYAMGWYRQAPGKERELVAAISKRGASTYYADSVKGRFTISRDNAKNTVYLQMNSLKPEDTAVYYCAAYRQGSAYDYWGQGTQVTVSS | high polyreactivity
41 | QVQLVESGGGLVQAGGSLRLSCAASGSIFSYYAMGWYRQAPGKERELVAAISRGGSTYYADSVKGRFTISRDKAKNTVYLQMNSLKPEDTAVYYCNVDSFRYRHTGYGYTRYGYWGQGTQVTVSS | high polyreactivity
42 | QVQLVESGGGLVQAGGSLRLSCAASGSIFSYYAMGWYRQAPGKERELVASITYSGGSTYYADSVKGRFTISRDNAKNTVYLQMNSLKPEDTAVYYCAAPLAYEGDYWGQGTQVTVSS | low polyreactivity
43 | QVQLVESGGGLVQAGGSLRLSCAASGSIFSYYAMGWYRQAPGKERELVATISNSGVSTYYADSVKGRFTISRDNAKNTVYLQMNSLKPEDTAVYYCAKEWLYYNGFFRSYYWGQGTQVTVSS | high polyreactivity
